Results reported in the DeepSol protein solubility set.

Assay: soluble on expression in E. coli; label from the status in PepcDB or PDB records

Sequence | soluble on expression in E. coli
MKITVIGAGNVGATTAFRLAEKQLARELVLLDVVEGIPQGKALDMYESGPVGLFDTKVTGSNDYADTANSDIVIITAGLPRKPGMTREDLLMKNAGIVKEVTDNIMKHSKNPIIIVVSNPLDIMTHVAWVRSGLPKERVIGMAGVLDAARFRSFIAMELGVSMQDINACVLGGHGDAMVPVVKYTTVAGIPISDLLPAETIDKLVERTRNGGAEIVEHLKQGSAFYAPASSVVEMVESIVLDRKRVLPCAVGLEGQYGIDKTFVGVPVKLGRNGVEQIYEINLDQADLDLLQKSAKIVDENCKMLESTIG | soluble
ESLCPQHHEALSLFCYEDQEAVCLICAISHTHRAHTVVPL | soluble
MTKLQGLQGLKHIKAVVFDMDGTLCLPQPWMFPAMRNAIGLEDKSIDILHFIDTLPTEKEKKEAHDRIELVEAKAMKEMQPQPGLVDIMRYLTKNGISKNICTRNVGAPVETFVKRFIPSELSRFDYIVTREFRPTKPQPDPLLHIASKLNIRPLEMIMVGDSFDDMKSGRSAGCFTVLLKNHVNGHLLLEHKELVDVSVEDLSEIIELIQNMNKESF | not soluble
MGSDKIHHHHHHMRKKNYYLVSDGKLRRHENTIYFENEDGKRPIPINSIYAIYALGSLSITSKAISLLAKEGVCIHFFNRYGYYIGSFYPRESLVSGEVVLRQAEHHLDSEKRLHLARAFVEGAILNMARVLKKAEQDDSDVIASLQHLSSAKSIVELMGAEAAARNAYYTKFDEILKNFEFGKRSRMPPENEVNAMISFGNSLLYSAVLSEIYHTQLNPAISYLHEPSERRFSLALDIAELFKPVIVDRLIFYLVNNGIVTESDFDSRLGGILLSEEGKKKFVRHFNERLEKTVKHRKLNRKVSYQRLIRLECYKLVKHFTAVEKYSPFVMWW | not soluble
MTGTERKVFQKYYPPDFDPSKIPRAKGQKNRQFVQRVMTPFNMQCNTCHEYIYKGKKFNMKRETAEGETYLGLKLFRFYFRCPNCLAEITFKTDLENCDYQNEHGATRLFEAVKLYQDQQKQVDEQEAEDAKDPMKMLEKRTMQSRQEMEEMGNLEDLQESSRTKECIDTIGFLSSTDPHIAQAQRIKMMEDEDDRMARELMGITSEGRIERRIKDDEDNSDGADEDDKDIPGPSASVVPSTSSMLKPAIPKLGMDDSGNSRKRNEQRDRFAGIKLIKKAKPSEPSTSSTASSTSSAPPPLPSSAASSGLSLLADYGSGSDSD | not soluble
MAHHHHHHMSFFRMKRRLNFVVKRGIEELWENSFLDNNVDMKKIEYSKTGDAWPCVLLRKKSFEDLHKLYYICLKEKNKLLGEQYFHLQNSTKMLQHGRLKKVKLTMKRILTVLSRRAIHDQCLRAKDMLKKQEEREFYEIQKFKLNEQLLCLKHKMNILKKYNSFSLEQISLTFSIKKIENKIQQIDIILNPLRKETMYLLIPHFKYQRKYSDLPGFISWKKQNIIALRNNMSKLHRLY | not soluble
MGSDKIHHHHHHMNILVIGANGGVGSLLVQQLAKENVPFTAGVRQSDQLNALKSQGMKAILVDVENDSIETLTETFKPFDKVIFSVGSGGNTGADKTIIVDLDGAVKSMIASKEANIKHYVMVSTYDSRRQAFDDSGDLKPYTIAKHYADDYLRRSGLNYTILHPGALTNAAGSGKIEAAQYFDGKGEIPREDVATVLKEIVTSNHFNHQEFQIISGEQDIKDALTQFEIEKD | not soluble
DHFFELMGTTTEQAYELVDLHPAYRLFPEGSPALDVDSGVGNVATLFDALHPGAGKKVQRYLRNATDVYHLSLRHFLYTTFSNPRDFLRADILRRLPYLARLLSSSLDTWVRNRFPHPILRQILSYPAVFLSTQPTQAPALYSLMSHTDLVEGVHYPRGGFAAIMSAIEKIDREAGVEFYYEHEVTDITIESGRACGITAAGPHGTSTFNADVVVSAADLHHTETRLLPPHLRSYPENYWSKRNPGLGTVLIMLGVRGHLPELAHHNLLFSKDWDPDFAAVYSGPHPSRPLGASQSIYISKTSATDSDAAPEGHENLFILVPVPANDALGHGNTYHHTASPRVEEITRATIAQIATWTGISDLDERIVVTKTIGPADFSERYHAWSSGAIGPAHTLMQSAFFRGKNMASKVKGLYYAGGTTVPGVGVPMCLISAENVITRIKAE | not soluble
MPKSLYNYHEFIHLSHDGRIPFEKIEVPKNAILLNNSADLDNYVYLIIDGYVALFLNDGKEQPKIYSIQGEGAFLNYFTLLDHSINRFRYKTLSKCFLYRYSKLDIEYFLSMFPENFGFQFFIMKNQTTHIYFKSLMASSPASEKLMLTFSNLARLHGIPTEDDTVILPPAIKTSHLLSYSNLSKSCFYKDLQYLKTTNQIEKQDNSWIIHNKELNLMLQNGETYI | not soluble
MYRSHFIADVTPEYDGKEVIWAGWVHLLRDLGGKKFIILRDKTGLGQVVVDKNSSAFGISQELTQESVIQVRGIVKADKRAPRGIELHAEEITLLSKAKAPLPLDVSGKVKADIDTRLRERVLDLRRQEMQAVIKIQSLALKAFRETLYKEGFIEIFTPKIIASATEGGAQLFPVIYFGKEAFLAQSPQLYKELMAGVVERVFEVAPAWRAEESDTPFHLAEFISMDVEMAFADYNDVMQLLEKILHNIVKTIKEEGKEELKILNYEPPEVKIPIKRLKYTEAIEILRSKGYNIKFGDDIGTPELRILNEELKEDLYFIVDWPSDARPFYTKSKSENPELSESFDLIYKFLEIVSGSTRNHKREVLEEALKKKGLKPESFEFFLKWFDYGMPPHAGFGMGLARLMVMLTGIQSVKEIVPFPRDKKRLTP | soluble
MTSLILPTDDGGTREYRLQAATSWVKPTAPLTARRAYAAAHVIPEVAADNTPGAPAQLDWDATLAYRHELWSYGLGVADAMDTAQRGMGLDWAATQQLIKRTGAEAASVVAAGNAAITGKSVRDLVSCGAGTDQLDITALPEGAAGIQAVIDAYREQIAVVSEAGPKVILMASRALAKVANGADDYLHVYSTLLQEVDQPVILHWLGTMFDPALAGYWGSDDVSVATDTFLSLIREHSDKVDGVKVSLLDASHEVALRAALPEGVRLYTGDDFNYPELIDGDQTHHSDALLGIFAAIYPAASVALQKYDAGQGTEGRAILDSTRELGKHIFSAPTFYYKTGIAFMSWLNGKQPGFQMVGGLHSGRSVLHLAKTFELADQAGLLKDPSLAAFRMSDFLRINGVG | not soluble
MATLVVNKLGAGVDSGRQGSRGTAVVKVLECGVCEDVFSLQGDKVPRLLLCGHTVCHDCLTRLPLHGRAIRCPFDRQVTDLGDSGVWGLKKNFALLELLERLQNGPIGQYGAAEESIGISGESIIRCDEDEAHLASVYCTVCATHLCSECSQVTHSTKTLAKHRRVPLADKPHEKTMCSQHQVHAIEFVCLEEGCQTSPLMCCVCKEYGKHQGHKHSVLEPEANQIRASILDMAHCIRTFTEEISDYSRKLVGIVQHIEGGEQIVEDGIGMAHTEHVPGTAENARSCIRAYFYDLHETLCRQEEMALSVVDAHVREKLIWLRQQQEDMTILLSEVSAACLHCEKTLQQDDCRVVLAKQEITRLLETLQKQQQQFTEVADHIQLDASIPVTFTKDNRVHIGPKMEIRVVTLGLDGAGKTTILFKLKQDEFMQPIPTIGFNVETVEYKNLKFTIWDVGGKHKLRPLWKHYYLNTQAVVFVVDSSHRDRISEAHSELAKLLTEKELRDALLLIFANKQDVAGALSVEEITELLSLHKLCCGRSWYIQGCDARSGMGLYEGLDWLSRQLVAAGVLDVA | soluble
MAHHHHHHMSSYDAMSAVSSNGAVMPEINLHPRLMTHRPESDSYTGSARHSSRSTRAVPTNAELAYAGVTAQDGVVQQLSSRSEERGSLAGPREVSAQSNSGHRALRAITACGSIDEPLQLSEPHQGRAIRDTPREQKPQQHQSQPTRSISHGVVARNAAGAGSSREPIRPGRSSCSSTPRIPSKHNDPYAHVTSVVQEYRQSRINALEAQYRVAHTHSNTSVSQGYDTRQSQSASPRSLEARRNASAHSRASARPRDGSWRMSSVSSRTRQNSPLPRAVEEEYLRGGVPRAALDAPHIRYAEALYNMYNSSSSSARRLACMSSMSSNMTTEYVPDVAKRIPDRFKYVPPTEEERRLHREATLRALEEWRRRQCARENAHCKGSEDMAAGGAAVELRNRNPPKNQSGTRSQQPQQAGHEEAAAWALQKGFDNTSDSFSGQARDSFTPSKKCSARKAKKIRSAAEQRDDYPTNEGAGEWERPQSSVGKRSGTLISRRQNGAGLRASSRKGRKSPTESARVEDGMKLNSFREKLLFDIAPPTVSIA | not soluble
MRVKEQLLTLRAYVPGKNIEEVKREYGLSKIVKLASNENPFGCSARVTEALTSLASQYALYPDGHAFELRTQVAKHLGVKAEQLLFGSGLDEVIQMISRALLHEGTNVVMANPTFSQYHHHAVIEGAEVREVSLKDGIHDLDAMLQQVDDQTKIVWICNPNNPTGTYVEKQKLLSFLESVPKSALVIMDEAYYEYAGAEDYPQTLPLLEKYENLMVLRTFSKAYGLAAFRIGYAVGNTELIGQLEVARLPFNTSTVAQSVALAALEDQAFLQECVKKNEEGLHQYYAFCKEYNVFYYPSQTNFIFLKLGIPGNEAFERLMKKGYIVRSGAAFGIDDGIRITVGLKEENDEIIELLKELVNEQVQKEETYS | soluble
MGHHHHHHSHMKIELSMQPWNPGYSSEGATAQETYTCPKMIEMEQAEAQLAELDLLASMFPGENELIVNDQLAVAELKDCIEKKTMEGRSSKVYFTINMNLDVSDEKMAMFSLACILPFKYPAVLPEITVRSVLLSRSQQTQLNTDLTAFLQKHCHGDVCILNATEWVREHASGYVSRDTSSSPTTGSTVQSVDLIFTRLWIYSHHIYNKCKRKNILEWAKELSLSGFSMPGKPGVVCVEGPQSACEEFWSRLRKLNWKRILIRHREDIPFDGTNDETERQRKFSIFEEKVFSVNGARGNHMDFGQLYQFLNTKGCGDVFQMFFGVEGQ | not soluble
MGSDKIHHHHHHMQIKNLSLKNKKDLQIWKEFLTEHGISNFSSAEVFKIDETIALFEDQRIVATGSLAGNVLKYIAVESEGSGSEFNSVISQLTNLAAGKGIFHLFVFTKAKYSKSFQFIGFKELAKSDNAALLESGDYLIGDYLAELPRVANQEEKKIAGIVMNANPFTKGHRYLVEKAASENDYVYVFVVSTDASLFNSKERLQLVKEGTADLKNVFVVSGGDYMVSYATFPAYFLTSDQTVIEYQTTLDALIFKNQIAPVLNIQTRFLGEEPFSKTTGIYNRILEKVLPPSVSVKIIPRAKTQSETIITATEVRQLIAKNNLVPLKQFLPFTTIKYVEEHKTELQSRIKKGININGN | not soluble
MGHHHHHHSHMKWASENGASVEGFEMVNFKEEGFGLRATRDIKAEELFLWVPRKLLMTVESAKNSVLGPLYSQDRILQAMGNIALAFHLLCERASPNSFWQPYIQTLPSEYDTPLYFEEDEVRYLQSTQAIHDVFSQYKNTARQYAYFYKVIQTHPHANKLPLKDSFTYEDYRWAVSSVMTRQNQIPTEDGSRVTLALIPLWDMCNHTNGLTPEDSFALAVASA | not soluble
MANKLTILASVVAASTAMMATSAQAADTTLDKVTKQGFLTCGVSTGLPGFSNPNSKGEWEGIDVEYCQALAAAVLGDKTKVKYVPLTAKERFTALQSGEIDVLSRNTTWTLHRDTALGLNFVGVNYYDGQGFMVKKDLGISSAKELDGASVCVQSGTTTELNLADYFRNSGMSYKPVVFDTAAQTSKGFDAGRCDVLTTDQSGLYALRLNLKDPSSAAVLPEIISKEPLGPVVRQGDDQWFNIAKWTLAAMVNAEEYGITSKNADEMLKSQDPNIKRILGVDGPKGKGLGIRDDWGYQVVKQVGNYGESFERTVGKGSPLEIARGVNALWNAGGFMYAPPIR | not soluble
MTTCLLDIDQQQSVLGAGYHEPRAYSPYGGMRVVPVSALAFCGQHLDPLTGSYPLGNGHRFYRPSLRRFISPDVLSPFGKGGLNAYAYCQGDPVNFADPSGRFPAIIAPVRNLVTGVINLGISAVKMYRNYRTGRDFALNSGYPASRSGVFTYGTSEHAVARWSVADKVVSAAGGISASLSIGTATARLITPESEVLAWVDFGVASFATVLSAYELYGLATSSAERRYPIQPVAYEIRTGVQPLEHHHHHH | soluble
